This note sets out measurements from US10513713B2, “Modified host cells having tolerance to α-olefins” (priority 2014, dated 2019).

Common to all, as to assay type: cell-based
The test system of series [1] is E. coli K12. Nature of the series: microbe, parasite or virus in culture. As to conditions: Escherichia coli, K12, 2 h, read-out: toxic dose (concentration of compound that decreased growth by half).
Experimental: A: The olefin compounds were added to different concentrations as indicated to an E. coli K12 culture at an OD600=0.2. OD was monitored after 2 hour at 37° C. The bars represent standard deviation between duplicates B: A survival test in presence of 1-octene was performed. Six different dilutions of a culture (10 cells to 10^7 cells, left to right) of E. coli K12 were spotted in triplicate on an agar plate. […] Plates were incubated at room temperature for 2 days and then opened to allow evaporation of the olefin.
In this example, toxicity of olefin compounds was evaluated. A toxic dose was defined as the concentration of compound that decreased growth by half.
In series [2] the test system is E. coli K12. Briefly: Survival test on agar plate with 1-octene overlay. As to conditions: 2 days at room temperature, FIG. 1B. As for the experimental part: FIG. 1. Impact of styrene, 1-hexene and 1-octene on cell growth. A: The olefin compounds were added to different concentrations as indicated to an E. coli K12 culture at an OD600=0.2. OD was monitored after 2 hour at 37° C. The bars represent standard deviation between duplicates B: A survival test in presence of 1-octene was performed. Six different dilutions of a culture (10 cells to 10^7 cells, left to right) of E. coli K12 were spotted in triplicate on an agar plate. An overlay of 1-octene was added over the cells (controls had no overlay). Plates were incubated at room temperature for 2 days and then opened to allow evaporation of the olefin.
For agar plate based assays, cells were first streaked overnight and few colonies were used to inoculate a preculture of 6 mL of LB-Cm with glucose (2 g/L) and arabinose (5 mM). At OD60=1 at 37° C., the cultures were used to prepare a dilution series. Dilution 0 (D0) corresponds to the OD600, =1, and contains ˜10^9 cells/mL. Dilution 1 (D1) is a 10-fold dilution of D0, dilution 2 (D2) a 10-fold dilution of D1 up to dilution 5 (D5), which contains ˜10^4 cells/mL. 10 μL of each dilution was spotted in triplicate on LB-agar plates (single well plates, Thermo Scientific, Waltham, Mass.) containing 30 mL of LB-agar, Cm (30 mg/L), glucose (2 g/L) and arabinose (5 mM). […]

Series [3] deals with E. coli K12 ΔacrAB. Briefly: Survival assay on agar plate in olefin saturated atmosphere, strains producing AcrAB or AcrB variants. As for the experimental part:
(§1) FIG. 2: impact of AcrAB production on growth, in presence of styrene 1-hexene, 1-octene and 1-nonene on cell growth. A: Different concentrations of styrene were added to an OD600=0.2 culture of E. coli K12 ΔacrAB containing the pABc (white) or the control plasmid p0c (black). OD density was monitored after 2 hours of growth at 37° C. The bars represent standard deviation between duplicates. B: A survival test in presence of 1-hexene, 1-octene, or 1-nonene saturated atmosphere was performed. Six different dilutions of cultures (10 cells to 10^7 cells, left to right on the figure) were spotted in triplicate on an agar plates. Plates were then exposed to the aforementioned chemicals.
FIG. 4: Impact of beneficial mutations on AcrB on tolerance to 1-hexene, A: Survival test of E. coli strain producing either the AcrB wild type or variants in a 1-hexene saturated atmosphere was performed. Two dilutions of cultures (Dilution 1: 10^5 cells and Dilution 2: 10^4 cells) were spotted in triplicate on an agar plate. B: Localization of the 6 beneficial mutations represented on the structure of a single monomer of AcrB or C: on the structure of the AcrB trimer.
FIG. 6: Impact of beneficial mutations on AcrB on tolerance to 1-hexene. A: Survival test of E. coli strain producing either the AcrB Wild type or variants with 1, 2 or several beneficial mutations, in an 1-hexene saturated atmosphere was performed. Two dilutions of cultures (Dilution 2: 10^4 cells and Dilution 3: 10^3 cells) were spotted in triplicate on an agar plate. B: Soluble fraction of total proteins from a culture of strains producing either the wild type, either the variant F617L, either the variant 6 (A279T, Q584R, F617L) were analyzed by western blot using anti-His antibody.
For agar plate based assays, cells were first streaked overnight and few colonies were used to inoculate a preculture of 6 mL of LB-Cm with glucose (2 g/L) and arabinose (5 mM). At OD60=1 at 37° C., the cultures were used to prepare a dilution series. Dilution 0 (D0) corresponds to the OD600, =1, and contains ˜10^9 cells/mL. Dilution 1 (D1) is a 10-fold dilution of D0, dilution 2 (D2) a 10-fold dilution of D1 up to dilution 5 (D5), which contains ˜10^4 cells/mL. 10 μL of each dilution was spotted in triplicate on LB-agar plates (single well plates, Thermo Scientific, Waltham, Mass.) containing 30 mL of LB-agar, Cm (30 mg/L), glucose (2 g/L) and arabinose (5 mM). Small containers (microfuge tube lids) were placed on the open lid of the agar plate and filled with 400 to 600 μL of 1-hexene or 1-octene or with 75 μL of 1-nonene. The agar plates were then inverted over the lid, cells facing the olefin compound, sealed with parafilm, placed in the plastic bag (the original packaging for the petri dishes) and incubated for 2 days at room temperature. For 1-octene, a second condition, via overlaying 2 mL of compound on the top of the agar submerging the cells, was used. TolC overexpression impact was examined using the same method, but in this case, the LB media and the LB-agar were also supplemented with ampicillin (100 mg/L) and IPTG (100 μM). […]

Series [4] concerns E. coli K12 wild type. Nature of the series: Survival test in 1-hexene saturated atmosphere on over-production of AcrA, AcrB and TolC. The following applies: FIG. 3.
Experimental: Six different dilutions of cultures (10 cells to 10^7 cells, left to right on the picture) were spotted in triplicate on an agar plate.
For agar plate based assays, cells were first streaked overnight and few colonies were used to inoculate a preculture of 6 mL of LB-Cm with glucose (2 g/L) and arabinose (5 mM). At OD60=1 at 37° C., the cultures were used to prepare a dilution series. Dilution 0 (D0) corresponds to the OD600, =1, and contains ˜10^9 cells/mL. Dilution 1 (D1) is a 10-fold dilution of D0, dilution 2 (D2) a 10-fold dilution of D1 up to dilution 5 (D5), which contains ˜10^4 cells/mL. 10 μL of each dilution was spotted in triplicate on LB-agar plates (single well plates, Thermo Scientific, Waltham, Mass.) containing 30 mL of LB-agar, Cm (30 mg/L), glucose (2 g/L) and arabinose (5 mM). […] The agar plates were then inverted over the lid, cells facing the olefin compound, sealed with parafilm, placed in the plastic bag (the original packaging for the petri dishes) and incubated for 2 days at room temperature. For 1-octene, a second condition, via overlaying 2 mL of compound on the top of the agar submerging the cells, was used. TolC overexpression impact was examined using the same method, but in this case, the LB media and the LB-agar were also supplemented with ampicillin (100 mg/L) and IPTG (100 μM).
Series [5] has as its system E. coli K12 ΔacrAB. Nature of the series: Growth in liquid culture with 1-hexene, styrene or bile salts, strains producing AcrAB or AcrB variants. As for the experimental part: as §1
FIG. 5: Impact of beneficial AcrB mutations on growth, in presence of 1-hexene and styrene. Different concentrations of 1-hexene (A), styrene (B), or bile salts (C) were added to an OD600=0.2 culture of E. Coli K12 ΔacrAB containing either the AcrB wild type (pABc) or the AcrB variants. OD densities were monitored after 2 hours of culture at 37° C. The bars represent standard deviation between duplicates.
Cells were first inoculated in 6 mL LB-Cm with glucose (2 g/L) and arabinose (5 mM). […] After 2 hours at 37° C., OD600 was measured. […]

Where a chain is given by its changes, count along the chain named. Numbers in names are those of the source.

On to `C=CCCCCCC` [1-octene], for which, in series [1], the IC50 is over 1000 µg/mL. Also, the “toxicity relative to the other olefins tested” value in series [2] is listed as “less toxic”.

B1: AcrA and AcrB: plasmid-borne wild type acrA and acrB in an operon under an arabinose inducible promoter (pABc) (protein, UniProt P0AE06 25-397; P31224 1-1049, looked up)
Multidrug efflux pump subunit … 1: CDDKQAQQGGQQMPAVGVVTVKTEPLQITTELPGRTSAYRIAEVRPQVSGIILKRNFKEGSDIEAGVSLYQIDPATYQATYDSAKGDLAKAQAAANIAQLTVNRYQKLLGTQYISKQEYDQALADAQQANAAVTAAKAAVETARINLAYTKVTSPISGRIGKSNVTEGALVQNGQATALATVQQLDPIYVDVTQSSNDFLRLKQELANGTLKQENGKAKVSLITSDGIKFPQDGTLEFSDVTVDQTTGSITLRAIFPNPDHTLLPGMFVRARLEEGLNPNAILVPQQGVTRTPRGDATVLVVGADDKVETRPIVASQAIGDKWLVTEGLKAGDRVVISGLQKVRPGVQVKAQEVTADNNQQAASGAQPEQSKS
Multidrug efflux pump subunit … 2: MPNFFIDRPIFAWVIAIIIMLAGGLAILKLPVAQYPTIAPPAVTISASYPGADAKTVQDTVTQVIEQNMNGIDNLMYMSSNSDSTGTVQITLTFESGTDADIAQVQVQNKLQLAMPLLPQEVQQQGVSVEKSSSSFLMVVGVINTDGTMTQEDISDYVAANMKDAISRTSGVGDVQLFGSQYAMRIWMNPNELNKFQLTPVDVITAIKAQNAQVAAGQLGGTPPVKGQQLNASIIAQTRLTSTEEFGKILLKVNQDGSRVLLRDVAKIELGGENYDIIAEFNGQPASGLGIKLATGANALDTAAAIRAELAKMEPFFPSGLKIVYPYDTTPFVKISIHEVVKTLVEAIILVFLVMYLFLQNFRATLIPTIAVPVVLLGTFAVLAAFGFSINTLTMFGMVLAIGLLVDDAIVVVENVERVMAEEGLPPKEATRKSMGQIQGALVGIAMVLSAVFVPMAFFGGSTGAIYRQFSITIVSAMALSVLVALILTPALCATMLKPIAKGDHGEGKKGFFGWFNRMFEKSTHHYTDSVGGILRSTGRYLVLYLIIVVGMAYLFVRLPSSFLPDEDQGVFMTMVQLPAGATQERTQKVLNEVTHYYLTKEKNNVESVFAVNGFGFAGRGQNTGIAFVSLKDWADRPGEENKVEAITMRATRAFSQIKDAMVFAFNLPAIVELGTATGFDFELIDQAGLGHEKLTQARNQLLAEAAKHPDMLTSVRPNGLEDTPQFKIDIDQEKAQALGVSINDINTTLGAAWGGSYVNDFIDRGRVKKVYVMSEAKYRMLPDDIGDWYVRAADGQMVPFSAFSSSRWEYGSPRLERYNGLPSMEILGQAAPGKSTGEAMELMEQLASKLPTGVGYDWTGMSYQERLSGNQAPSLYAISLIVVFLCLAALYESWSIPFSVMLVVPLGVIGALLAATFRGLTNDVYFQVGLLTTIGLSAKNAILIVEFAKDLMDKEGKGLIEATLDAVRMRLRPILMTSLAFILGVMPLVISTGAGSGAQNAVGTGVMGGMVTATVLAIFFVPVFFVVVRRRFSRKNEDIEHSHTVDHH
For B1, in series [3] (pump expression vs control plasmid, saturated atmosphere, FIG. 2B), the “survival and growth in 1-hexene, 1-octene and 1-nonene” value is recorded as “strong advantage”. The “tolerance to 1-hexene on over-expression in the wild type strain” value in series [4] was “greater than the wild type”. In addition, the “survival in the presence of styrene compared to control plasmid” value in series [5] (pABc vs p0c, styrene, FIG. 2A) was “enhanced survival”.

B2: Q584R: E. coli AcrB (SEQ ID NO:1) variant with amino acid mutation Q584R (protein)
chain: B1 Multidrug efflux pump subunit … 2 with Q584R
modifications: E. coli
With B2, the “efficiency among the beneficial mutations” value in series [3] (1-hexene saturated atmosphere) was “more efficient”. Further, the “tolerance to 1-hexene relative to wild type AcrB sequence” value in series [3] (single mutation AcrB variants, 1-hexene saturated atmosphere, FIG. 4A) is “improvement in tolerance”. Also, the “growth of the strain in presence of bile salts” value in series [5] (bile salts, FIG. 5C) was “improved the growth”.
